From patent US20190100600A1 (BIONOMICS, published 2019)

Columns and labels:
[1] = biological target: T1, purified recombinant LGR5 ectodomain-IgG-Fc fusion (human, UniProt O75473 22-561); assay: ELISA of the ternary complex: R-spondin 4 preincubated with LGR5-Fc, co-receptor-Fc coated
T1 construct: also called human LGR5-Fc; hLGR5-Fc; not shown: IgG Fc
T1 sequence: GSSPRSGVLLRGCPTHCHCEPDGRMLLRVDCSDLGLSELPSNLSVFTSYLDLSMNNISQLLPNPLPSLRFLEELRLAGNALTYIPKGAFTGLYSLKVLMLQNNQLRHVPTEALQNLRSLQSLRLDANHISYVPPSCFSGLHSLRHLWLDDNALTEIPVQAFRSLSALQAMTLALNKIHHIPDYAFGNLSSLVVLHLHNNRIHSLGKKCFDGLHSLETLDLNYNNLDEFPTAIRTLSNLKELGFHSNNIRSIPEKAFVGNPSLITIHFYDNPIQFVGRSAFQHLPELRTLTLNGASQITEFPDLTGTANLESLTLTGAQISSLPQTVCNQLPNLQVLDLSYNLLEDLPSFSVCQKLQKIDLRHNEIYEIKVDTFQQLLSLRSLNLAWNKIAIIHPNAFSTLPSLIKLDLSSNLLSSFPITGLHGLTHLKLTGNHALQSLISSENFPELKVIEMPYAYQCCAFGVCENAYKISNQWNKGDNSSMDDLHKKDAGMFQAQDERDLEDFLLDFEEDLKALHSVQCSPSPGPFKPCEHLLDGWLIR

[2] = biological target: T1, purified recombinant LGR5 …; assay: ELISA of the ternary complex: R-spondin 2 preincubated with LGR5-Fc, co-receptor-Fc coated
Procedure: (§1) RNF43-Fc, ZNRF3-Fc, and LRP6-Fc were coated on a 96-well high binding plate at 4 μg/mL in 1×PBS. The plate was incubated overnight at 4° C. and blocked with PBS+1% BSA. […] Triplicate wells were used for each condition was tested in triplicate. […] 1:10,000 dilution of anti-mouse IgG HRP (JIR) was used for detection. […] Data analysis was done using GraphPad Prism 6 program.

[3] = biological target: T1, purified recombinant LGR5 …; assay: ELISA of the ternary complex: R-spondin 3 preincubated with LGR5-Fc, co-receptor-Fc coated
Procedure: as §1

[4] = biological target: T1, purified recombinant LGR5 …; assay: ELISA of the ternary complex: R-spondin 1 preincubated with LGR5-Fc, co-receptor-Fc coated
Procedure: as §1

B1: human R-spondin 4 (ligand, UniProt Q2I0M5 20-234, looked up)
chain: LNRRKKQVGTGLGGNCTGCIICSEENGCSTCQQRLFLFIRREGIRQYGKCLHDCPPGYFGIRGQEVNRCKKCGATCESCFSQDFCIRCKRQFYLYKGKCLPTCPPGTLAHQNTRECQGECELGPWGGWSPCTHNGKTCGSAWGLESRVREAGRAGHEEAATCQVLSESRKCPIQRPCPGERSPGQKKGRKDRRPRKDRKLDRRLDVRPRQPGLQP
notes: mature; Bought; printed as 'full length constructs expressed in mammalian cells'; also called RSPO4; R-spo4
[1]
  binding result: binds

B2: human R-spondin 2 (ligand, UniProt Q6UXX9 22-243, looked up)
chain: QGNRWRRSKRASYVSNPICKGCLSCSKDNGCSRCQQKLFFFLRREGMRQYGECLHSCPSGYYGHRAPDMNRCARCRIENCDSCFSKDFCTKCKVGFYLHRGRCFDECPDGFAPLEETMECVEGCEVGHWSEWGTCSRNNRTCGFKWGLETRTRQIVKKPVKDTILCPTIAESRRCKMTMRHCPGGKRTPKAKEKRNKKKKRKLIERAQEQHSVFLATDRANQ
notes: mature; Bought; printed as 'full length constructs expressed in mammalian cells'; also called RSPO2; R-spo2
[2]
  binding result: binds

B3: human R-spondin 3 (ligand, UniProt Q9BXY4 22-272, looked up)
chain: QNASRGRRQRRMHPNVSQGCQGGCATCSDYNGCLSCKPRLFFALERIGMKQIGVCLSSCPSGYYGTRYPDINKCTKCKADCDTCFNKNFCTKCKSGFYLHLGKCLDNCPEGLEANNHTMECVSIVHCEVSEWNPWSPCTKKGKTCGFKRGTETRVREIIQHPSAKGNLCPPTNETRKCTVQRKKCQKGERGKKGRERKRKKPNKGESKEAIPDSKSLESSKEIPEQRENKQQQKKRKVQDKQKSVSVSTVH
notes: mature; Bought; printed as 'full length constructs expressed in mammalian cells'; also called RSPO3; R-spo3
[3]
  binding result: binds

B4: human R-spondin 1 (ligand, UniProt Q2MKA7 21-263, looked up)
chain: SRGIKGKRQRRISAEGSQACAKGCELCSEVNGCLKCSPKLFILLERNDIRQVGVCLPSCPPGYFDARNPDMNKCIKCKIEHCEACFSHNFCTKCKEGLYLHKGRCYPACPEGSSAANGTMECSSPAQCEMSEWSPWGPCSKKQQLCGFRRGSEERTRRVLHAPVGDHAACSDTKETRRCTVRRVPCPEGQKRRKGGQGRRENANRNLARKESKEAGAGSRRRKGQQQQQQQGTVGPLTSAGPA
notes: mature; Bought; printed as 'full length constructs expressed in mammalian cells'; also called RSPO1; R-spo1
[4]
  binding result: binds
